Measurements: PMC4660213, “Identification and characterization of multiple rubisco activases in chemoautotrophic bacteria” (Nature Communications, 2015)

B1: Acidithiobacillus ferrooxidans CbbO2 (natural protein, UniProt B7J5E5 1-759, looked up)
chain: MTDHPRDASLPSRLAAYRKQLDCRFPRVGEVFSDCIAKASARLGPAGVSAYVDAARALCKLGRGEEPVLIFLEEWPDVGAALGDGTLEMVMQMVQFMQRTPNGNAIGGFLQSLAPVSRALLSREQLGHYLNTLRDMMERTTGSIHGHHQTHPSPGLPELLRQAPTLLQSLTVDGLRNWVDYGVRNYLHHPERQKDFFSLQSADSRAVLQRERHGTLLADVERKLDLYLRGLWQDSEVLVPYSTAFATLRTPQPYYDALGMRLPDVLDDLPGIGALDHYRAILAHMVGHRRWSTPQIADNWSPFQRLAVEFFEDARIDTLLIRTYPGLRTLFLALHPKPGEDACDPETTSCLRHRLAMLSRALLDPEHGYRNPVLHDFVDRFHGELAGGNADTATMARLALDYVTTTRRQSDQFAKVHFADTEISYRDDNRGLWRFIESGDEEEAFDAEQRKAPDLETQGLPPRHYPEWDYQSQSYRPDWVSLYEGLHASAPAATIDQLLLKHAALAKHLKRLLDLLKPQDKVRIRYQEEGSELDLDVALRSWIDFKSGSTPDPRINMSHRTAGRDIAVTLLLDLSESLNESVKTGGGDGQTVLQLSQEAVSLLAWSIEQLGDPLAIAGFNSNTRHEVRYQHIKGFSEPWGDVVKGRLAALQAGYSTRMGAAMRHAGHYLATRKADKKLMLVLTDGRPSDVDVQDDRLLIEDARQAVNELDRDGIFTYCISLDPHADAYVADIFGRQYTVIDHIARLPEKLPELFIALTR
notes: VWA-domain protein CbbO2 of Acidithiobacillus ferrooxidans ATCC 23270, locus AFE_2157; insoluble unless co-expressed with CbbQ2; also called AfCbbO2; source: E. coli, co-expressed with CbbQ2, co-purified (Ni-NTA, ubiquitin cleaved, MonoQ, Superdex 200; 5 mM MgCl2 and 5% glycerol in buffers); not shown: His6, N-terminal, cleaved; ubiquitin, N-terminal, cleaved
B2: Acidithiobacillus ferrooxidans CbbO1 (natural protein, UniProt B7JA27 1-772, looked up)
chain: MKHLEDYAELLQAFGEGSQAILQSKWQEATRVFSPSGLDQYLDGAMGLRSLGKGDGLVSSYLDAAPHIAREVGEDAVWELVGAVMKMASKTSGAVLEAVVSTSPTAANRLADPELFKSYLGMLDRLLAQVPRALRPMLENIDQLFGYLTLGGLRRWALWGAHAHRTDFEAQIAYFSLKSPEALAMLQQERKGTLFVDIQRRLRMYLRALWGRDFFLRPTSGDFEDREGYRPYIEGIFIHLPDAYDDWEDIDGMTRYRAVAVHAAAHVAYMRKAISAEALTPEQMAVIGLFEDARVEALAMRAFPGIRAIWLPFHTAVAGPVASMGHLFSRLARAIIDPDYVDDNAWVQEGRRVFMEAEARWDDPQLSWDLGVHLADRLRNQRVSYHARTDIPDILYRDDNRYIWEFEEIDWEHETTILPGAQVRKYVNVMEMVNEVDTELAGDDAQEVWVLQSELFPYEDMGLSYNQMEGKEPVSDPFHYPEWDYQIQASRPLWATVLERRPRLGDARVVREVLEKYKPVSSRLRYLIEALQPQGVQRLRKQEDGDEIDVEAAVRALVDIRMGLAPDTRIHMRSLRKVRDLGVLVLMDLSESTNDKVRGSEDSILQLTRDATSLLADAMNRIGDPFAIHGFHSDGRHDVAYYRFKDFDEAYSEEAMGRIAGMTGKFSTRMGAALRHAGHHLRHQRQSRKLLLVITDGEPADIDVRDPQYLRHDARRAVEDLGRDGVITYCLSLDPHADEYVSRIFGARNYQVIDHVERLPERLPILYAGLTR
notes: VWA-domain protein CbbO1 of Acidithiobacillus ferrooxidans ATCC 23270, locus AFE_3054; insoluble unless co-expressed with CbbQ1; also called AfCbbO1; source: E. coli, co-expressed with CbbQ1, co-purified (Ni-NTA, ubiquitin cleaved, MonoQ, Superdex 200); not shown: His6, N-terminal, cleaved; ubiquitin, N-terminal, cleaved
B3: Acidithiobacillus ferrooxidans CbbQ1 (natural protein, UniProt B7JA26 1-267, looked up)
chain: MNDQLTEYRIKKAPYYRATGDETELYEAAYSVRMPMMLKGPTGCGKTRFVEYMAYKLGKPLITVACNEDMTASDLVGRFLLDPQGTRWQDGPLTLAARLGAICYLDEVVEARQDTTVVIHPLTDNRRVLPLEKKGELVQAHPDFQLVISYNPGYQSLMKDLKQSTKQRFGALDFNYPDHEIEAEIVSHETGVNKEVADKLVSIAERARNLKGHGLDEGISTRMLVYAGSLINKGVEAKAACRVTLVRPITDDPDMRDALDAAVTTYF
notes: MoxR-type AAA+ protein CbbQ1 of Acidithiobacillus ferrooxidans ATCC 23270, locus AFE_3053; native N terminus after cleavage of His6-ubiquitin; six copies in the Q1O1 complex; alone it eluted in the void volume (likely soluble aggregates); also called AfQ1; AfCbbQ1; source: E. coli, co-expressed with CbbO1, co-purified (Ni-NTA, ubiquitin cleaved, MonoQ, Superdex 200); not shown: His6, N-terminal, …
B4: Rhodobacter sphaeroides form I rubisco large subunit (natural protein, UniProt P27997 1-486, looked up)
chain: MDTKTTEIKGKERYKAGVLKYAQMGYWDGDYVPKDTDVLALFRITPQEGVDPVEAAAAVAGESSTATWTVVWTDRLTACDSYRAKAYRVEPVPGTPGQYFCYVAYDLILFEEGSIANLTASIIGNVFSFKPLKAARLEDMRFPVAYVKTYKGPPTGIVGERERLDKFGKPLLGATTKPKLGLSGKNYGRVVYEGLKGGLDFMKDDENINSQPFMHWRDRFLYVMEAVNLASAQTGEVKGHYLNITAGTMEEMYRRAEFAKSLGSVIVMVDLIIGYTAIQSISEWCRQNDMILHMHRAGHGTYTRQKNHGISFRVIAKWLRLAGVDHLHCGTAVGKLEGDPLTVQGYYNVCREPFNTVDLPRGIFFEQDWADLRKVMPVASGGIHAGQMHQLLSLFGDDVVLQFGGGTIGHPMGIQAGATANRVALEAMVLARNEGRNIDVEGPEILRAAAKWCKPLEAALDTWGNITFNYTSTDTSDFVPTASVAM
notes: form I rubisco large subunit of Rhodobacter sphaeroides; also called large subunit of RsLS
B5: Acidithiobacillus ferrooxidans form II rubisco (enzyme, UniProt B7J5E3 1-459, looked up)
chain: MDQSNRYADLSLKEEDLISGGKHILVAYKMKPKAGHGYLEAAAHFAAESSTGTNVEVSTTDDFTKGVDALVYHIDEATEDMRIAFPLELFDRNVTDGRMMIVSFLTLVIGNNQGMGDIEHGQMIDFFMPPRAIQLFDGPAKDISDLWRILGRPIKDGGYIAGTIIKPKLGLRPEPFAAAAYQFWLGGDFIKNDEPQGNQVFAPVKKTIPLVYDAMKRAMDETGEAKLFSMNITADDHYEMCARADFALETFGPDADKLAFLVDGFVGGPGMITTARRQYAGQYLHYHRAGHGMITSPSAKRGYTAFVLAKMSRLQGASGIHVGTMGYGKMEGGADDRNIAYMIERDSCDGPVYHQEWYGMKPTTPIISGGMNALRLPGFFENLGHGNVINTAGGGSYGHIDSPAAGAVSLRQAYECWKAGADPIEYAREHKEFARAFESFPGDADKLYPGWREKLGVHR
notes: form II rubisco (CbbM) of Acidithiobacillus ferrooxidans ATCC 23270, locus AFE_2155; native N terminus after cleavage of His6-ubiquitin; used as ECM, ER and ECMC complexes in the enzymatic assays; also called AfM; CbbM; source: E. coli BL21 (DE3), purified (Ni-NTA, ubiquitin cleaved, Mono Q, Superdex 200); not shown: His6, N-terminal, cleaved; ubiquitin, N-terminal, cleaved
B6: Rhodopseudomonas palustris form II rubisco (enzyme, UniProt Q6N0W9 1-461, looked up)
chain: MDQSNRYANLNLKESELIAGGRHVLCAYIMKPKAGFGNFIQTAAHFAAESSTGTNVEVSTTDDFTRGVDALVYEVDEANSLMKIAYPIELFDRNVIDGRAMIASFLTLTIGNNQGMGDVEYAKMYDFYVPPAYLKLFDGPSTTIKDLWRVLGRPVINGGFIVGTIIKPKLGLRPQPFANACYDFWLGGDFIKNDEPQGNQVFAPFKDTVRAVADAMRRAQDKTGEAKLFSFNITADDHYEMLARGEFILETFADNADHIAFLVDGYVAGPAAVTTARRAFPKQYLHYHRAGHGAVTSPQSKRGYTAFVLSKMARLQGASGIHTGTMGFGKMEGEAADRAIAYMITEDAADGPYFHQEWLGMNPTTPIISGGMNALRMPGFFDNLGHSNLIMTAGGGAFGHVDGGAAGAKSLRQAEQCWKQGADPVEFAKDHREFARAFESFPQDADKLYPNWRAKLKPQAA
notes: form II rubisco (CbbM) of Rhodopseudomonas palustris; gene synthesized by Genscript, cloned in pHue; also called RpM; source: E. coli BL21 (DE3), purified (Ni-NTA, ubiquitin cleaved, Mono Q, Superdex 200); not shown: His6, N-terminal, cleaved; ubiquitin, N-terminal, cleaved
B7: Rhodobacter sphaeroides form I rubisco small subunit (natural protein, UniProt P27998 1-129, looked up)
chain: MRITQGCFSFLPDLTDEQISAQVDYCLGRGWAVSLEHTDDPHPRNTYWEMWGMPMFDLRDPKGVMIELDECRKAWPGRYIRINAFDSTRGFETVTMSFIVNRPEVEPSLRMERTEVDGRSIRYTHSIVR
notes: form I rubisco small subunit of Rhodobacter sphaeroides; also called small subunit of RsLS
B8: Acidithiobacillus ferrooxidans CbbQ2 (natural protein, UniProt B7J5E4 1-272, looked up)
chain: MTATDSSILNQYLVGKEPFYQPQHDEVALFEAAYRKRLPVMVKGPTGCGKSRFVEFMAWRLGKPLVTVACNEDMTAADLVGRWLLDKDGTRWQDGPLTVAARYGAICYLDEIVEARQDTTVVIHPLTDHRRTLPLDKKGELIRAHPDFQLVISYNPGYQSLMKDLKQSTKQRFTGFEFDYPNAELEAGILVQETGVAPSIAAQLVTVAATARRLKGHGLDEGISTRLLVYAAMLMDDGVAPRAACRMALVQPITDDADIRATLEHAIDMTFA
notes: MoxR-type AAA+ protein CbbQ2 of Acidithiobacillus ferrooxidans ATCC 23270, locus AFE_2156; native N terminus after cleavage of His6-ubiquitin; also called AfQ2; AfCbbQ2; not shown: His6, N-terminal, cleaved; ubiquitin, N-terminal, cleaved
B9: Acidithiobacillus ferrooxidans form I rubisco large subunit (natural protein, UniProt B7JA24 1-473, looked up)
chain: MAVKTYNAGVKDYRNTYWEPDYSVKDTDILAVFKITPQAGVDREEAAAAVAAESSTGTWTTVWTDLLTDLDYYKGRAYRIEDVPGDDTCFYAFIAYPIDLFEEGSVVNVFTSLVGNVFGFKAVRALRLEDVRFPIAYVKTCGGPPHGIQVERDIMNKYGRPLLGCTIKPKLGLSAKNYGRACYEGLRGGLDFTKDDENVNSQPFMRWRQRFDFVMEAIQKAEAETGERKGHYLNVTAPTPEEMYKRAEYAKEIGAPIIMHDYITGGFCANTGLANWCRDNGMLLHIHRAMHAVLDRNPHHGIHFRVLTKILRLSGGDHLHSGTVVGKLEGDREATLGWIDIMRDRFIKEDRSRGIFFDQDWGSMPGVMPVASGGIHVWHMPALVTIFGDDSVLQFGGGTLGHPWGNAAGAAANRVALEACVEARNRGVAIEKEGKAVLTEAAKHSPELKIAMETWKEIKFEFDTVDKLDVAHK
notes: form I rubisco large subunit (CbbL) of Acidithiobacillus ferrooxidans ATCC 23270, locus AFE_3051; gene amplified from genomic DNA; cbbL and cbbS were amplified together and cloned between NdeI and HindIII of pET30b; no tag is mentioned; also called AfL; CbbL; source: E. coli BL21, co-expressed with the small subunit from pET30bAfcbbLS, purified (Source30Q, Superdex 200)

What was measured:
[1] = target: B8; experiment: SEC + other: glycerol gradient sedimentation; combined Stokes radius/sedimentation analysis: Stokes radius from gel filtration, Svedberg coefficient from 5–30% glycerol gradients in buffer A (1 mg/ml, 35,000 r.p.m., 16 h, 4 °C); M=4,205 (SRs); settings: both partners purified
[2] = target: B8; experiment: quantitative densitometry of SDS-PAGE; Coomassie-stained SDS–PAGE of the purified complexes (4 µg per lane), assuming equal binding of the dye; settings: both partners purified
[3] = target: B3; experiment: SEC + other: glycerol gradient sedimentation; combined Stokes radius/sedimentation analysis: Stokes radius from gel filtration, Svedberg coefficient from 5–30% glycerol gradients in buffer A (1 mg/ml, 35,000 r.p.m., 16 h, 4 °C); M=4,205 (SRs); settings: both partners purified
[4] = target: B3; experiment: quantitative densitometry of SDS-PAGE; Coomassie-stained SDS–PAGE of the purified complexes (4 µg per lane), assuming equal binding of the dye; settings: both partners purified
[5] = target: the molecule itself; experiment: SEC + other: glycerol gradient sedimentation; combined Stokes radius/sedimentation analysis: Stokes radius from gel filtration, Svedberg coefficient from 5–30% glycerol gradients in buffer A (1 mg/ml, 35,000 r.p.m., 16 h, 4 °C); M=4,205 (SRs)
[6] = target: B4; experiment: as above; settings: both partners purified

Row | Binder | stoichiometry N [5] | further results
1 | B1 |  | stoichiometry N [1]: 1 CbbO subunit per CbbQ hexamer; stoichiometry N [2]: 1 CbbO subunit per 6 CbbQ subunits
2 | B2 |  | stoichiometry N [3]: 1 CbbO subunit per CbbQ hexamer; stoichiometry N [4]: 1 CbbO subunit per 6 CbbQ subunits
3 | B3 | 6 CbbQ subunits in the complex | 
4 | B4 | 8 large subunits in the complex | 
5 | B5 | 6 subunits in the oligomer | 
6 | B6 | 6 subunits in the oligomer | 
7 | B7 |  | binding result [6]: binds
8 | B8 | 6 subunits in the oligomer | 
9 | B9 | 8 large subunits in the complex | 
